Measured values published in US12227771B2, “Expression systems and methods of use thereof” (Janssen Pharmaceutica NV, priority 2019, dated 2025).

B1: TMEM100: Transmembrane protein 100, SEQ ID NO: 9, co-transfected cDNA clone (protein, listed as Homo sapiens)
chain: MTEEPIKEILGAPKAHMAATMEKSPKSEVVITTVPLVSEIQLMAATGGTELSCYRCIIPFAVVVFIAGIVVTAVAYSFNSHGSIISIFGLVVLSSGLFLLASSALCWKVRQRSKKAKRRESQTALVANQRSLFA
B2: TMEM132D: Transmembrane protein 132D, SEQ ID NO: 7, co-transfected cDNA clone (protein, listed as Homo sapiens)
chain: MCPSEMGTLWHHWSPVLISLAALFSKVTEGRGILESIQRFSLLPTYLPVTYHINNADVSFFLKEANQDIMRNSSLQSRVESFLIYKSRRLPVLNASYGPFSIEQVVPQDLMLPSNPFGFTNKFSLNWKLKAHILRDKVYLSRPKVQVLFHIMGRDWDDRSAGEKLPCLRVFAFRETREVRGSCRLQGDLGLCVAELELLSSWFSPPTVVAGRRKSVDQPEGTPVELYYTVHPGGERGDCVREDARRSNGIRTGHSDIDESGPPLQRIGSIFLYQTHRKPSLRELRLDNSVAIHYIPKTVRKGDVLTFPVSISRNSTEDRFTLRAKVKKGVNIIGVRASSPSIWDVKERTDYTGKYAPAVIVCQKKAAGSENSADGASYEVMQIDVEVEEPGDLPATQLVTWQVEYPGEITSDLGVSKIYVSPKDLIGVVPLAMEAEILNTAILTGKTVAVPVKVVSVEDDGTVTELLESVECRSSDEDVIKVSDRCDYVFVNGKEMKGKVNVVVNFTYQHLSSPLEMTVWVPRLPLQIEVSDTELNQIKGWRVPIVSSRRPAGDSEEEEDDERRGRGCTLQYQHAMVRVLTQFVAEAAGPGGHLAHLLGSDWQVDITELINDFMQVEEPRIAKLQGGQILMGQELGMTTIQILSPLSDTILAEKTITVLDEKVTITDLGVQLVTGLSLSLQLSPGSNRAIFATAVAQELLQRPKQEAAISCWVQFSDGSVTPLDIYDGKDFSLMATSLDEKVVSIHQDPKFKWPIIAAETEGQGTLVKVEMVISESCQKSKRKSVLAVGTANIKVKFGQNDANPNTSDSRHTGAGVHMENNVSDRRPKKPSQEWGSQEGQYYGSSSMGLMEGRGTTTDRSILQKKKGQESLLDDNSHLQTIPSDLTSFPAQVDLPRSNGEMDGNDLMQASKGLSDLEIGMYALLGVFCLAILVFLINCVTFALKYRHKQVPFEEQEGMSHSHDWVGLSNRTELLENHINFASSQDEQITAIDRGMDFEESKYLLSTNSQKSINGQLFKPLGPIIIDGKDQKSEPPTSPTSKRKRVKFTTFTAVSSDDEYPTRNSIVMSSEDDIKWVCQDLDPGDCKELHNYMERLHENV
B3: TMEM132E: Transmembrane protein 132E, SEQ ID NO: 8, co-transfected cDNA clone (protein, listed as Homo sapiens)
chain: MAPGMSGRGGAALLCLSALLAHASGRSHPASPSPPGPQASPVLPVSYRLSHTRLAFFLREARPPSPAVANSSLQRSEPFVVFQTKELPVLNVSLGPFSTSQVVARELLQPSSTLDIPERLTVNWKVRAFIVRSHVPASQPVVQVLFYVAGRDWDDFGVTERLPCVRLHAFRDAREVKSSCRLSGGLATCLVRAELPLAWFGPPAPAAPPTARRKSPDGLEPEATGESQQAELYYTLHAPDASGGCGGSRRGAGPGVGARAESPTQHPLLRIGSISLFRPPPRRTLQEHRLDSNLMIRLPDRPLKPGEVLSILLYLAPNSSSPSSPSVEHFTLRVKAKKGVTLLGTKSRSGQWHVTSELLTGAKHSTATVDVAWAQSTPLPPREGQGPLEILQLDFEMENFTSQSVKRRIMWHIDYRGHGALPDLERAVTELTVIQRDVQAILPLAMDTEIINTAILTGRTVAIPVKVIAIEVNGLVLDISALVECESDNEDIIKVSSSCDYVFVSGKESRGSMNARVTFRYDVLNAPLEMTVWVPKLPLHIELSDARLSQVKGWRVPILPDRRSVRESEDEDEEEEERRQSASRGCTLQYQHATLQVFTQFHTTSSEGTDQVVTMLGPDWLVEVTDLVSDFMRVGDPRVAHMVDSSTLAGLEPGTTPFKVVSPLTEAVLGETLLTVTEEKVSITQLQAQVVASLALSLRPSPGSSHTILATTAAQQTLSFLKQEALLSLWLSYSDGTTAPLSLYSPRDYGLLVSSLDEHVATVTQDRAFPLVVAEAEGSGELLRAELTIAESCQKTKRKSVLATTPVGLRVHFGRDEEDPTYDYPGPSQPGPGGGEDEARGAGPPGSALPAPEAPGPGTASPVVPPTEDFLPLPTGFLQVPRGLTDLEIGMYALLGVFCLAILVFLINCIVFVLRYRHKRIPPEGQTSMDHSHHWVFLGNGQPLRVQGELSPPAGNPLETVPAFCHGDHHSSGSSQTSVQSQVHGRGDGSSGGSARDQAEDPASSPTSKRKRVKFTTFTTLPSEELAYDSVPAGEEDEEEEEDLGWGCPDVAGPTRPTAPPDLHNYMRRIKEIA
B4: TMEM132C: Transmembrane protein 132C, SEQ ID NO: 6, co-transfected cDNA clone (protein, listed as Homo sapiens)
chain: MRSEGAAPGPAAPLCGALSLLLGALLGKVIEGHGVTDNIQRFSSLPPYLPVSYHILRAETSFFLKEANQDLLRNSSLQARVESFFTYKTRQPPVLNASYGPFSVEKVVPLDLMLTSNFLGPTNKFSFDWKLKAHILRDKVYLSRPKVQVLFHIMGRDWDDHGAGEKLPCLRVFAFRETREVRGSCRLKGDLGLCVAELELLSSWFSAPTVGAGRKKSMDQPEGTPVELYYTVHPGNERGDCAGGDFRKGNAIRPGKDGLEETTSHLQRIGTVGLYRAQDSAQLSELRLDGNVVIWLPSRPVKQGEVVTAYVTISSNSSVDLFILRAKVKKGVNILSAQTREPRQWGVKQEVGSGGKHVTATVACQRLGPSPRNRSSSLFNEVVQMNFEIASFSSLSGTQPITWQVEYPRKGTTDIAVSEIFVSQKDLVGIVPLAMDTEILNTAVLTGKTVAMPIKVVSVEENSAVMDISESVECKSTDEDVIKVSERCDYIFVNGKEIKGKMDAVVNFTYQYLSAPLCVTVWVPRLPLQIEVSDTELSQIKGWRVPIVTNKRPTRESEDEDEEERRGRGCALQYQHATVRVLTQFVSEGAGPWGQPNYLLSPNWQFDITHLVADFMKLEEPHVATLQDSRVLVGREVGMTTIQVLSPLSDSILAEKTITVLDDKVSVTDLAIQLVAGLSVALYPNAENSKAVTAVVTAEEVLRTPKQEAVFSTWLQFSDGSVTPLDIYDTKDFSLAATSQDEAVVSVPQPRSPRWPVVVAEGEGQGPLIRVDMTIAEACQKSKRKSILAVGVGNVRVKFGQNDADSSPGGDYEEDEIKNHASDRRQKGQHHERTGQDGHLYGSSPVEREEGALRRATTTARSLLDNKVVKNSRADGGRLAGEGQLQNIPIDFTNFPAHVDLPKAGSGLEENDLVQTPRGLSDLEIGMYALLGVFCLAILVFLINCATFALKYRHKQVPLEGQASMTHSHDWVWLGNEAELLESMGDAPPPQDEHTTIIDRGPGACEESNHLLLNGGSHKHVQSQIHRSADSGGRQGREQKQDPLHSPTSKRKKVKFTTFTTIPPDDSCPTVNSIVSSNDEDIKWVCQDVAVGAPKELRNYLEKLKDKA

Target: T1, human α9α10 nAChR (Homo sapiens, UniProt Q9GZZ6+Q9UGM1)
T1 construct: expressed in transfected cells; host or cells: HEK293T
Assay: FLIPR calcium assay of HEK293T cells co-transfected with α9α10 nAChR and cDNA clones, response evoked by 200 μM ACh
Format: cell-based
Settings: 200 μM ACh; for FLIPR Response (Fold/Baseline): 180 s; for functional expression of co-transfected α9α10 nAChR in cDNA library screen: HEK293T, 20,000 cDNA clones
Method: Human embryonic kidney 293T (HEK293T) cells were cultured in high glucose DMEM medium supplemented with 10% FBS, sodium pyruvate and penicillin/streptomycin. Prior to transfection, cells were seeded at ˜80-90% confluence in 384-well fluorescence imaging plate reader (FLIPR) assay plates. After a 4 hour (hr) incubation, wells of cells were individually co-transfected with human α9α10 nAChR plus one of 20,000 clones from cDNA libraries encoding most all human proteins (Origene Technologies; Rockville, Md.; Broad Institute; Cambridge, Mass.) using Fugene HD (Promega; Madison, Wis.) according to the manufacture's protocol. After two days incubation, cells were washed three times with assay buffer (137 mM NaCl, 4 mM KCl, 2 mM CaCl2, 1 mM MgCl2, 5 mM glucose, 10 mM HEPES pH7.4) and loaded with Calcium5 dye (Molecular Devices; San Jose, Calif.) and 1.25 mM probenecid for 1 hr at room temperature (RT). After three washes, the plates were placed in the FLIPR stage.
To further characterize the regulation of α9α10 nAChR expression, HEK293T cells were co-transfected with α9α10 nAChR and each of CHAT, TMIE, TMEM100, TMEM132A, TMEM132C, TMEM132D, TMEM132E and TNFRSF10A individually and in combination (Table 2).

[1] = HEK293T co-transfected with α9α10 nAChR + CHAT plus the named gene
[2] = HEK293T co-transfected with α9α10 nAChR plus the named gene

T1 sequence (Q9UGM1 23-479): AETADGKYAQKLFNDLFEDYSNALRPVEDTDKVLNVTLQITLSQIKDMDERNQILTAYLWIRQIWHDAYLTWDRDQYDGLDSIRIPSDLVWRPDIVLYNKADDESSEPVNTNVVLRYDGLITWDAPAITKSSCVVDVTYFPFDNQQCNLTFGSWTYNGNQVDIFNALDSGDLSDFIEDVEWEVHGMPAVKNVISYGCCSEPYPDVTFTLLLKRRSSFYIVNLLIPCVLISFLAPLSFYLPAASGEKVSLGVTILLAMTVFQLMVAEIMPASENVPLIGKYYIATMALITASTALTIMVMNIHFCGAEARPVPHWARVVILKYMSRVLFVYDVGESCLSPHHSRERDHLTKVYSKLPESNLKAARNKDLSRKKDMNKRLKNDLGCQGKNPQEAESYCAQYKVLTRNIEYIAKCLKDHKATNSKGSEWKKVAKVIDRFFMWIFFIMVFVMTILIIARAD
T1 sequence (Q9GZZ6 25-450): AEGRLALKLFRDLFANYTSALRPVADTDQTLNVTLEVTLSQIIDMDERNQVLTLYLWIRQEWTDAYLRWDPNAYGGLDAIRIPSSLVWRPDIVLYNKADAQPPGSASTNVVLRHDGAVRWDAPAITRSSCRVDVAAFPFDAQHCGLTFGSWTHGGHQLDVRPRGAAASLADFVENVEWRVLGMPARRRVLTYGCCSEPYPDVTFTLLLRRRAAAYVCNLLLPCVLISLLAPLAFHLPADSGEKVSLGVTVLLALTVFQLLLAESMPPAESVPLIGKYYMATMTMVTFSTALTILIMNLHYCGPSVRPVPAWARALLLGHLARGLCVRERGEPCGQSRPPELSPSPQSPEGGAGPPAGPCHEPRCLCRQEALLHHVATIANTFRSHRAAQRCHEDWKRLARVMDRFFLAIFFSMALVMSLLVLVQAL

Row | Molecule | FLIPR Response (Fold/Baseline) [1] | FLIPR Response (Fold/Baseline) [2] | functional expression of co-transfected α9α10 nAChR in cDNA library screen
1 | B1 | 3.0 Fold/Baseline | 0.6 Fold/Baseline | enabled functional expression
2 | B2 | 2.6 Fold/Baseline | 0.4 Fold/Baseline | enabled functional expression
3 | B3 | 2.6 Fold/Baseline | 0.7 Fold/Baseline | enabled functional expression
4 | B4 | 2.0 Fold/Baseline | 0.7 Fold/Baseline | enabled functional expression
